Assay results reported in article PMC8856988.

Experiments:
[1] = target: Skeletal muscle myosin (rabbit) (rabbit); assay: ELISA; SkM immobilised on microtiter plate; diluted pooled plasma (endogenous FXI) in 30 mM Hepes, pH 7.4, 130 mM NaCl, 2 h, room temperature; bound FXI detected with anti-FXI mAb AHXI-5061, calculated from the curve of purified FXI; apparent
[2] = target: Skeletal muscle myosin (rabbit) (rabbit); assay: BLI; SkM immobilised on Octet Red Amine Reactive Second-Generation Biosensor; FXI or PK in solution; 30 mM Hepes, pH 7.4, 0.01% Tween-20, 0.1% PEG, 50 mM NaCl, 30 °C
[3] = target: Skeletal muscle myosin (rabbit) (rabbit); assay: ELISA; SkM (10 μg/ml, sodium bicarbonate pH 9.3) immobilised on microtiter plate, blocked with 0.5% BSA; purified FXI 0–10 nM in 30 mM Hepes, pH 7.4, 130 mM NaCl, 2 h, room temperature; bound FXI detected with anti-FXI mAb AHXI-5061 and HRP-goat antimouse; apparent

Skeletal muscle myosin (rabbit) (rabbit), sequence (Q28641 whole entry, chain 1 of 3): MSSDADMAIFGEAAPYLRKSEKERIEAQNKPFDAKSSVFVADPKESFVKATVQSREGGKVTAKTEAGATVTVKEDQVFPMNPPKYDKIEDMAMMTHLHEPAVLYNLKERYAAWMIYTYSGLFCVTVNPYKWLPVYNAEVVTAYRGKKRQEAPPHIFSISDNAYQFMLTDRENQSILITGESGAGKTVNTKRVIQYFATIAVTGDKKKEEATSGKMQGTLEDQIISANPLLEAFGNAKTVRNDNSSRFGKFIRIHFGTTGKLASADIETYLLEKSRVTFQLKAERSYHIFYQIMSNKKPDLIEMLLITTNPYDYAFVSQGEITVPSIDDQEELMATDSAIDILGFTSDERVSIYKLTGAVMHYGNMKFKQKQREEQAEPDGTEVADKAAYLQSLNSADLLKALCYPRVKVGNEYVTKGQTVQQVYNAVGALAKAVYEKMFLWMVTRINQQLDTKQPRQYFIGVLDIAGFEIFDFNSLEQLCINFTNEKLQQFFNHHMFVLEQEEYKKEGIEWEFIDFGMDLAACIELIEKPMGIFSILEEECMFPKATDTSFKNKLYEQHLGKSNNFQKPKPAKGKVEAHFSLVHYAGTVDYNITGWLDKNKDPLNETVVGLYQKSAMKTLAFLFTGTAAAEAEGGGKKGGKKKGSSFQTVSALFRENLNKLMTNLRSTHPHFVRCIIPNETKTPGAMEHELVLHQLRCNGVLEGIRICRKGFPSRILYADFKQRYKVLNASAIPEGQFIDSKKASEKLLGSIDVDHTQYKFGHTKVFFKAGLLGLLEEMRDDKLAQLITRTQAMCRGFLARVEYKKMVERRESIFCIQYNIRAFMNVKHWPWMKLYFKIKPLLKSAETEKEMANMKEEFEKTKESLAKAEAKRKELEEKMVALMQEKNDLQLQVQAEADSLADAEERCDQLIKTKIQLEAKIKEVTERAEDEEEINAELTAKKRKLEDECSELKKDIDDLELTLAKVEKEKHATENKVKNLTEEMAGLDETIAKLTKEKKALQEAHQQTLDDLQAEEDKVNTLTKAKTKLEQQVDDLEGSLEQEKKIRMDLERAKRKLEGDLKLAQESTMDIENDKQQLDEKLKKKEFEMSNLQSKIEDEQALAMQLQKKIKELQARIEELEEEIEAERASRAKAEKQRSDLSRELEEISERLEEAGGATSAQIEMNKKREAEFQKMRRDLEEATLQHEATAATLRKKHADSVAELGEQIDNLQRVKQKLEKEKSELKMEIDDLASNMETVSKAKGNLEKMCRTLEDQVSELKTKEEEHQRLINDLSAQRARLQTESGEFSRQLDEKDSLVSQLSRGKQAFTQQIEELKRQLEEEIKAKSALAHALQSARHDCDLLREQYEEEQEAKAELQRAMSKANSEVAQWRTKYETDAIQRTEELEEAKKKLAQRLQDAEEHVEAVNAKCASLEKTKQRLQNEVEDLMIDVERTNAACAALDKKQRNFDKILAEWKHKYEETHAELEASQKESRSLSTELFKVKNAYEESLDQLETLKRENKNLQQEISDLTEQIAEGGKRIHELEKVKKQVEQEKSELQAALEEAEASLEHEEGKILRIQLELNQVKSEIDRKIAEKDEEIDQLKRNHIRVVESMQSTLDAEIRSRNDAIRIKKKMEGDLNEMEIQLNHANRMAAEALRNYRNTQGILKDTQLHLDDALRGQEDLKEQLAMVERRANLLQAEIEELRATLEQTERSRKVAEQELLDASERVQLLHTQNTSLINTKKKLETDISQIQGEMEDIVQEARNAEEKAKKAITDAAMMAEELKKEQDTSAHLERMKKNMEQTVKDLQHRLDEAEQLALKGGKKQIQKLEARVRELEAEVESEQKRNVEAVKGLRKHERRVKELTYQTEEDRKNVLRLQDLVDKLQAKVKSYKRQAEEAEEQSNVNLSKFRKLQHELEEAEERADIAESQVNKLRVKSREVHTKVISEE
Skeletal muscle myosin (rabbit) (rabbit), sequence (P02602 2-192, chain 2 of 3, further chain): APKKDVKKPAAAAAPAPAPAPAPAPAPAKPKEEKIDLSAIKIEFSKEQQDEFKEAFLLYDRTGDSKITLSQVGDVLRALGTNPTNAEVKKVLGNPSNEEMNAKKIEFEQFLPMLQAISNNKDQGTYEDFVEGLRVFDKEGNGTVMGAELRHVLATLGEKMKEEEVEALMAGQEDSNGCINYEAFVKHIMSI
Skeletal muscle myosin (rabbit) (rabbit), sequence (P02608 2-170, chain 3 of 3, further chain): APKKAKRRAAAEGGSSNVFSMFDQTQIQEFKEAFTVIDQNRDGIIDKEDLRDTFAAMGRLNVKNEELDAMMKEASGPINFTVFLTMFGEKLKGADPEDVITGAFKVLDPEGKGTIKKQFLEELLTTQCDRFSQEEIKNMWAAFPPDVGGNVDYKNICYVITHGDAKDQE

Kd [1]: 0.7 nM
Kd [2]: 0.2 nM
koff [2]: 0.000795 s⁻¹
kon [2]: 3.87e+06 M⁻¹ s⁻¹
Kd [3]: 1.7 nM
Substance: Coagulation factor XI (natural protein)
